Measured values published in article PMC8525972.

Biological target: fluorescein-labeled Fc-III (Fluorescein-Ahx-…-NH2)
Test: other fluorescence titration

Row | Substance | fold increase of fluorescence intensity at 2.5 g/L | limit of detection by fluorescence intensity
1 | human IgG1 adalimumab biosimilar Exemptia (antibody) | 1.8 fold | 0.0001 g/L
2 | murine IgG1 (antibody) |  | 0.1 g/L
